Test results taken from publication PMC9170038.

Columns and labels:
[1] = tested on: Tetracycline aptamer, RNA-MaP condition construct (RNA, aptamer) GGAAAGGCGCUAAAACAUACCAGUUCGCUGGAGAGGUGAAGAAUACGACCACCUAGCGCCAAAGAAACAACAACAACAAC; experiment: 1M7 chemical mapping; conditions: 80 mM KCl, 4 mM MgCl2; 100 mM Tris-HCl, pH 7.5, 37 °C
[2] = tested on: Tetracycline aptamer, Light-up construct (RNA, aptamer) GGGAACGUCUCCGAGUAGGAGACGAAGGGAGAGUGGCAGCUUACAACGCUAAAACAUACCUGCACCACCGACCUUGAAAACAAGGGUAACGAAUGUGGAGCAGGAGAGGUGAAGAAUACGACCACCUAGCGAAGUGGGCUGUUGCUUUUCCAAGCUUAUCGAGUAGAUAAGCAAAAAGAAACAACAACAACAAC; experiment: DMS chemical mapping; conditions: 5 mM MgCl2, 1x PBS, pH 6.1, 24 °C
[3] = tested on: BH_E029 (RNA, aptamer) GGGAGAGUGGCAGCUUACAACGUAACGAUGCGGCCGCCACUGAUCCGACUGGUUAACAGAAAGUCCUGACCAGGUAACGAAUGGUCAGGACCGGGCAUUGUUACGAAGUGGGCUGUUGCUUUUCC; experiment: light-up fluorescence kinetics; conditions: 5 mM MgCl2, 1x PBS, pH 6.1, with tryptophan (ON state)
[4] = molecular target: T1, MS2 coat protein, dlFG mutant (Escherichia phage MS2, UniProt P03612, del68-81insG); experiment: 4 mM Mg2+; no ligand; RNA-MaP array; 100 mM Tris-HCl pH 7.5, 80 mM KCl, 4 mM MgCl2, 0.1 mg/mL BSA, 1 mM DTT, 0.01 mg/mL yeast tRNA, 0.01% Tween-20; protein 1.5 nM to 3 uM; 37 C (Table S3); conditions: chain copies: 2; label: tethered by stalled RNA polymerase
[5] = molecular target: T1, MS2 coat protein, dlFG mutant; experiment: 4 mM Mg2+; L-tryptophan 2.4 mM; RNA-MaP array; 100 mM Tris-HCl pH 7.5, 80 mM KCl, 4 mM MgCl2, 0.1 mg/mL BSA, 1 mM DTT, 0.01 mg/mL yeast tRNA, 0.01% Tween-20; protein 1.5 nM to 3 uM; 37 C (Table S3); conditions: chain copies: 2; label: tethered by stalled RNA polymerase
[6] = molecular target: T1, MS2 coat protein, dlFG mutant; experiment: 4 mM Mg2+; FMN 200 uM; RNA-MaP array; 100 mM Tris-HCl pH 7.5, 80 mM KCl, 4 mM MgCl2, 0.1 mg/mL BSA, 1 mM DTT, 0.01 mg/mL yeast tRNA, 0.01% Tween-20; protein 1.5 nM to 3 uM; 37 C (Table S3); conditions: chain copies: 2; label: tethered by stalled RNA polymerase

Row | Molecule | Kd [4] [nM] | other results
1 | CN(C)[C@@H]1C(=O)C(C(N)=O)=C(O)[C@@]2(O)C(=O)C3=C(O)c4c(O)cccc4[C@@](C)(O)[C@H]3C[C@@H]12 |  | Kd [1]: 622.07 ± 132.12/-105.63 nM; Kd [2]: 57.50 ± 22.58/-15.88 nM
2 | CN(C)c1ccc(C(=C2C=CC(=[N+](C)C)C=C2)c2ccccc2)cc1 |  | binding [3]: yes
3 | Eterna 7681146 (Same State - Arginine A) (ssRNA) RNA: ACUGGGUUGACGAAAGUCAACAAAAGAGAAGGAGCGCACGAAAGUGCAGGUAGGUCGCUCAUCCAGUGAUGUUGGAUCAUCCAGA | > 3000 | 
4 | Eterna 7675419 (Same State - Tryptophan A) (ssRNA) RNA: UUUAAACAUAGUGAUGUUAUGUAACAAUGACGAGGACCGGUACGGCCGCCACUCGAGAGAGAUGAUGGUAAAAUAAAUAAUUUUC | > 3000 | 
5 | Eterna 7616241 (Exclusion - Tryptophan A) (ssRNA) RNA: AAUGUAUGCCACAUGAGGAUCACCCAUGUGCGAGGACCGGUACGGCCGCCACUCGGUCGGUGGUUAAUGAAGAUAUACAAUAAUG |  | Kd [5]: 15.5 nM
6 | Eterna 1206 (Exclusion - Tryptophan A) (ssRNA) RNA: CUAUAGACCCUUCGGAUAGUGAUGUUGUCACGAGGACCGGUACGGCCGCCACUCGCUGCCACCAUACCGCUUCACGGAACGAGCA | > 3000 | 
7 | Eterna 7726098 (Exclusion - FMN A) (ssRNA) RNA: AAGUGAUGUUGUAGUGAUGUUGUGAUGUUGCAGGAUAUAUAGUGAUGUAGAAGGGUAAGUACUUAUUUUUUUUUUGAGUUAUGUU | > 3000 | 
8 | Eterna 7759081 (Exclusion - Theophylline A) (ssRNA) RNA: AACUGUCAAGGACAACAUUACUGAGGUGAUACCAGCAUCGAAAGAUGCCCUUGGCAGCGCCAACUUGCAGUGAUGUUGCAAGUAA | > 3000 | 
9 | Eterna 7752556 (Exclusion - Arginine B) (ssRNA) RNA: UUAGUCUAGAGAAGGAGCGAGUGAUGUUCGCAUGCUAUGAUGAAUUCAUCAUAGUUUAAUCCUCAGGUAGGUCGCUCUAGACAUU | > 3000 | 
10 | Eterna 6121097 (Same State NG 1) (ssRNA) RNA: CGCUGUCACGCAGGAUAUGCAUUGGAUUACAAUGCAGAAGGGCGAUUACAUGAGGAUCACCCAUGUGUCGACAGUGAAGAAGAG | 532 | 
11 | Eterna 7671436 (Same State - Theophylline A) (ssRNA) RNA: UGGACCUGACUCGAUAAGAGUCAAGGAGAUACCAGCCACGAAAGUGGCCCUUGGCAGCUCUGCCAGUGAUGUUGGUCAAGGUCCU | > 3000 | 
12 | Eterna 1165 (Exclusion - Theophylline B) (ssRNA) RNA: CCAAGCGUCAGCGAUACCAGAAUUCUAGUGAUGUUAGGUUCUGUCAUUGUACUAGCAGUGUUCCCUUGGCAGCGCGUGAUAGGCA | > 3000 | 
13 | Eterna 6391704 (Inverted Exclusion NG 3) (ssRNA) RNA: AGCUGGUGACAGCAUCCAUCUUAACAUGAGGAUCACCCAUGUAGAAGGCUGUACGGUUACCGUACAGAGGAUAUACAUAGAUGG |  | Kd [6]: 9.28 nM
